In PMC11962161 one finds stoichiometry N data, which are given here for two substances.

The target in test [1] is FCA-mScarlet-I (Arabidopsis thaliana). Nature of the test: single-particle tracking with stepwise photobleaching (SlimVar microscopy); fluorescent FCA fusions in nuclei of living Arabidopsis root tissue, 10 ms/frame; molecules per tracked particle from initial intensity over single-molecule brightness; control and sof78 backgrounds for FCA-eGFP.
Test [2] addresses MBP-PrLD (purified recombinant FCA C-terminal half containing prion-like domains) (Arabidopsis). Nature of the test: SEC-MALS; Superdex-200 10/300 GL, 40 mM Tris-HCl pH 7.4, 500 mM NaCl; protein at 2 mg/mL; self-association. In general terms: Size exclusion chromatography separates by hydrodynamic size, large species first.

For the substance FCA-mScarlet-I (natural protein), in test [1], the stoichiometry N (usually a count of units in the complex or per binding partner) came to 4 molecules.
“MBP-PrLD (purified recombinant FCA C-terminal half containing prion-like domains) (domain or fragment)”: in test [2], the stoichiometry N was over 100 molecules.
